The numbers were not newly measured in PMC7226498, which cites them from elsewhere.

The target of this series is p53 OD (Homo sapiens) (UniProt P04637).

p53 OD, sequence (P04637 325-356): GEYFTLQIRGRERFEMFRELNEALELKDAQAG

As usually defined, the Kd is the free concentration of one partner at which half of the binding sites on the other are occupied at equilibrium, for simple one-to-one binding. Take p53 OD (from UniProt P04637): the Kd is 1 nM.
